{"source": "the DeepSol protein solubility set", "data": [{"experiment": "soluble on expression in E. coli; label from the status in PepcDB or PDB records", "values": [{"sequence": "MTTLNSTPRADGFHMPAEWAPQTQVWMVWPERPDNWRLGGKPAQAAHVAIAKAIARFEPVTVAVSAAQYDNARARLDMPNIRVVEMSSNDAWVRDSGPTFVINDRGELRGVNWEFNAWGGFDGGLYAPWNLDSQVGSKVLEIERCPRYATQGFVLEGGSIHVDGEGTLITTEECLLNRNRNPHLTREQIEAVLSDYLAVDKIIWLPDGLFNDETDGHVDNFCCYIRPGEVLLAWTDDPEDPNYPRCHAALSILENTRDAQGRAFIVHKMPIPGPLFATEEECAGVDQVHGSQERNPSVRLAGSYVNFLIVNGGIIAPSFDDPMDEKAREILQKLFPEHEVVMAPGRELLLGGGNIHCLTQQQPAPFKALEHHHHHH", "soluble on expression in E. coli": "soluble"}, {"sequence": "MGSDKIHHHHHHMETQNKPTVTDIDRPILVPPGGHKKVLLHSCCAPCSGEVMEAMLASGIDYTIYFYNPNIHPHKEYMLRKEENVRFAEKFGIPFIDKDDDYENDRKEWFAKAKGMEFEPERGIRCTMCFDMRFEKAAQYAHEHGFPVFTSSLGISRWKNMNQINDCGRRAAAPYDDVVYWDFNWRKGGGSARMIEISKRENFYQQEYCGCAYSLRDSNAHRKSQGRIPIKLGVLYYGDESTQYEPAPIRVDK", "soluble on expression in E. coli": "not soluble"}, {"sequence": "SKNGLKKRKLTNPVQLDDFDGYIKDMAKDSDYKFSLQFEELKLIGLDIPHFAADLPMNRCKNRYTNILPYDFSRVRLVSMNEEEGSDYINANYIPGYNSPQEYIATQGPLPETRNDFWKMVLQQKSQIIVMLTQCNEKRRVKCDHYWPFTEDPIAYGDITVEMLSEEEHTDWVYRNFRISYADEVQDVMHFNYTAWPDHGVPTANAAESILQFVQMVRQKSVKSKGPMIIHCSAGVGRTGTFIALDWLLQHIRDHEFVDILGLVSDMRSYRMSMVQTEEQYIFIHQCVQLMWQKKKQQFCISDVIYENVSKS", "soluble on expression in E. coli": "soluble"}, {"sequence": "MGSDKIHHHHHHMARLAKIKVKTLEQRLWDTADALRGNQEPSEYKHVVLGLVFLKYISDRFEERRRAIETSLSDPNSEEYIPNEARRSEFLEDRDEYASHNVFWVPELARWGYLQDNAKLPKIGQQLDQAMDLIEKENPIIRGVLPRNYGREGLDKSRLGQLVDLIGSIGFTESDDHGSDDVLGRVYEYFLGQFAGKETGKDAGAFYTPRSVVKTLVEMLEPFHGRVYDPACGSGGMFVQSAEFVTAHGGERTDISVYGQEFTDTTWKLAKMNLALRGIEADLGDRSADSFTQDLHRDLRADFIIANPPFNVSNWWNAKLADDPRWKYGTPPEGNANFAWVQHFLHHLSPKGTAGFVLSNGSLSSKSSGEGEIRRKLVEADLVDCIVAMPDKLFFNTGIPVSLWFISKERHGNGHRARQGEVLFIDASKLGRMENRRLRVLDDDRDIAKIAGAYHAWRNHDGGYEDVPGFVVAATLEEIRQHDFVLTPGRYVGTKEAEADWEPVEDKIARLTGELYAEFERGRKLEEVVRERLGGLNAD", "soluble on expression in E. coli": "not soluble"}, {"sequence": "MTAKTLIVLIGPTGVGKTELSLRIAEYFKTSIISSDSRQLYAELKIGTAAPTPEQLKRVPHYFVGTLQLTDYYSAAQYETEVMSVLEQLFQQHHVVLLTGGSMMYVDAICKGIDDIPTVDAETRELLLHKYDTEGLDNLCAELKLLDPEYYKIVDLKNPKRVIHALEICYMTGKTYTSFRTQQKKERPFHILKIGLTRDRAELYDRINRRVDQMMDEGLLEEARSVYAHRELNSLNTVGYKEIFKYLDGEWDLDFAIEKIKQNSRIYSRKQMTWFKRDEEIRWFHPEQEKEILSYLQASIKLEHHHHHH", "soluble on expression in E. coli": "soluble"}, {"sequence": "RVCPRILLECKKDSDCLAECVCLEHGYCG", "soluble on expression in E. coli": "soluble"}, {"sequence": "MAHHHHHHMNIEDDENKEKKETCLSYIKKINMSEIINDEAIGKRAEYLWNLALSAVYINVKLSMKYITLIKKITKNNLLFDNICCHYCNLIYIPFYNCKITHSPNQGKATYTCLLCKRKKKINLQHLSKHKNIYPLKHSDKHKPSTSNLSNVNFFLINEIDNYEIKKNNVPLNKDDTSNTENQLITKQENKNEDILKDVSCADMQKEEHIINQDNIINQDNIINQDNIINQDNIINQDNIINQDNIINQDNIINQDNIINQDNIINQDNIINKNDMYQNLSYLFRIDYGINKDDTQKGNEIYDKSIVNESEKCKSVHIENNKNDDNKNMNSESKNIKNERKRKSQNNNIAQNKNQGFPNVNMNDGFLNFNKSKKKKGKSILDIL", "soluble on expression in E. coli": "not soluble"}, {"sequence": "MEKLNRAADDSMINTLSEKSNEFSFYQAVLLLEKHYQFEPNSNFVAVGENKYFHQERIEFSVSPNLCFPKSDMEFIVHMERNGQQYSRVETNFLGLHGSSSPLPVSYTEKLTGREPDDNPVKDFFDFFHNRYTSLLYRVWKKYRYHVQYQSGATDAFSGRMLHLAGLSGVMQDCGVAELDRAKVLSYVNQLSTRTRSPKLISGIVSHYFSLPSVRIEEWVYRRVEIADSQRNKLNRANCILGQSFHLGQSIADLNGKFNLCIDDIDFETFKQFSYEGELHKTLVGLMRFILRDPMSWDLKLTVNLDSIPNNQLGNGEGNNLGQTFWLGNPTDEDVKIRVIGSI", "soluble on expression in E. coli": "not soluble"}, {"sequence": "SLIHIAIVEDENKDRELLKEYLDRFQAEKGEPLFVHVYPDGEEFLESFSSGKFDILLLDIHMQYMNGMATAQEIRKSDENVLIIFITNLVQYAVQGYSVRAFDFIVKPVEYSVFAQKLYRATQRLNRTIHSCVRFKVLDQIVNLQLSGILYFEIVARKLFIYTDTEIYRCNDTLHSIEEKLNDGHFFRCHAGYLVNVAYVRSVGKDYAMVGSARIPVSKHRRKAFLDAIGNYLGSKEG", "soluble on expression in E. coli": "not soluble"}, {"sequence": "MRIEAAELRILELPLKFRFETSFGVQTKRTILLLRLFGEGLEGLGEGVMERLPLYREETVAGARYLLEEVFLPRVLGRDLPNPEALREALAPFRGNPMAKAVLEMAFFDLWAKALGRPLWQVLGGVRQAVEVGVSLGIQPSVEDTLRVVERHLEEGYRRIKLKIKPGWDYEVLKAVREAFPEATLTADANSAYSLANLAQLKRLDELRLDYIEQPLAYDDLLDHAKLQRELSTPICLDESLTGAEKARKAIELGAGRVFNVKPARLGGHGESLRVHALAESAGIPLWMGGMLEAGVGRAHNLHLATLPGFTKPGDVSSASRYWEEDIVEEALEAKDGLMPVPEGVGIGVHLKLPFVERVTLWQRYMSAS", "soluble on expression in E. coli": "soluble"}, {"sequence": "SESQTLDKVYQMKSKPRGYCLIINNHNFAKAREKVPKLHSIRDRNGTHLDAGALTTTFEELHFEIKPHDDCTVEQIYEILKIYQLMDHSNMDCFICCILSHGDKGIIYGTDGQEAPIYELTSQFTGLKCPSLAGKPKVFFIQACQGDNYQKGIPVETASEEQPYLEMALSSPQTRYIPDEADFLLGMATVNNCVSYRNPAEGTWYIQSLCQSLRERCPRGDDILTILTEVNYEVSNKDDKKNMGKQMPQPTFTLRKKLVFPSDVEHHHHHH", "soluble on expression in E. coli": "soluble"}, {"sequence": "MGHHHHHHSHMSIFTPTNQIRLTNVAVVRMKRAGKRFEIACYKNKVVGWRSGVEKDLDEVLQTHSVFVNVSKGQVAKKEDLISAFGTDDQTEICKQILTKGEVQVSDKERHTQLEQMFRDIATIVADKCVNPETKRPYTVILIERAMKDIHYSVKTNKSTKQQALEVIKQLKEKMKIERAHMRLRFILPVNEGKKLKEKLKPLIKVIESEDYGQQLEIVCLIDPGCFREIDELIKKETKGKGSLEVLNLKDVEEGDEKFE", "soluble on expression in E. coli": "soluble"}, {"sequence": "MKNTSRDTVVMSWWDFGHLFAVAADRPVTFDGGSQNTPRAYWIGKALTTSNETLSRGILTMLSTSGDLAYETLDNYTDDSGKTAEILTATLGLPREEARAVMTGRYGLSDKEADSVLRYSHPAKPKPFVLVLSSDMLGKAPWWTYFGTWDFKKKTGSRYGYYPSLEHHHHHH", "soluble on expression in E. coli": "soluble"}, {"sequence": "MTMTLVNKNRKSRDENAMAKYNEKELADTSKFLSFVLRHKPEAIGIVLDREGWADINKLILCAQKAGKRLTRALLDTVVATSDKKRFSYSSDGRCIRAVQGHSTSQVAISFAEKTPPQFLYHGTASRFLDEIKKQGLIAGDRHYVHLSADEATARKVGARHGSPVVLTVKAQEMAKRGIPFWQAENGVWLTSTVAVEFLEWSFMPTGVQKQLEHHHHHH", "soluble on expression in E. coli": "soluble"}, {"sequence": "MGSDKIHHHHHHMSAIERITKAAHLIDMNDIIREGNPTLRTVAEEVTFPLSDQEIILGEKMMQFLKHSQDPVMAEKMGLRGGVGLAAPQLDISKRIIAVLVPNIVEEGETPQEAYDLEAIMYNPKIVSHSVQDAALGEGEGCLSVDRNVPGYVVRHARVTVDYFDKDGEKHRIKLKGYNSIVVQHEIDHINGIMFYDRINEKDPFAVKDGLLILE", "soluble on expression in E. coli": "soluble"}]}]}
